Article PMC6447045 (Nature chemical biology, 2019)

B1: chimeric ARNT-GFP protein (ARNT residues 82–470 fused to Aequorea GFP) (domain or fragment)
chain: not shown
B2: HIF-2α G323E (3–361), His-tagged (domain or fragment)
chain: not shown
B3: HIF-2α mutant M252A (3–361), His-tagged (domain or fragment)
chain: not shown
B4: His-tagged HIF-1α (domain or fragment)
chain: not shown
B5: mouse HIF-2α bHLH-PAS-A-PAS-B region (3–361), His-tagged (domain or fragment)
chain: not shown

Tests used:
Assay in all cases: FRET or BRET
[1] = biological target: T1, His-tagged NPAS3 (neuronal PAS domain protein 3) (UniProt Q9QZQ0 56-455)
T1 sequence (looked up): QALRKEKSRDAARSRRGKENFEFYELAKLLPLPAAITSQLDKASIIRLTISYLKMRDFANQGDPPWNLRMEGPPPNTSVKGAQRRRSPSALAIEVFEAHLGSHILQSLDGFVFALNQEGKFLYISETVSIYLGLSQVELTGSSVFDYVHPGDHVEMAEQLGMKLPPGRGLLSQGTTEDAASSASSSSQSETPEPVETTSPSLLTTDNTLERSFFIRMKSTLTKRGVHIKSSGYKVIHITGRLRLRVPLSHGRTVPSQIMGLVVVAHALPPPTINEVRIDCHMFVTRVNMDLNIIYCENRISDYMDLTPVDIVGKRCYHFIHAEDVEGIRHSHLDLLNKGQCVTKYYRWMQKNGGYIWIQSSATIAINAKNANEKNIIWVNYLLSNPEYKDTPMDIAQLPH

[2] = biological target: B1
[3] = biological target: ARNT F446L-GFP (ARNT residues 82–470 fused to Aequorea GFP) (mouse, UniProt P53762 82-470, F446L)
Chain of ARNT F446L-GFP (ARNT residues 82–470 fused to Aequorea GFP) (P53762 82-470 F446L): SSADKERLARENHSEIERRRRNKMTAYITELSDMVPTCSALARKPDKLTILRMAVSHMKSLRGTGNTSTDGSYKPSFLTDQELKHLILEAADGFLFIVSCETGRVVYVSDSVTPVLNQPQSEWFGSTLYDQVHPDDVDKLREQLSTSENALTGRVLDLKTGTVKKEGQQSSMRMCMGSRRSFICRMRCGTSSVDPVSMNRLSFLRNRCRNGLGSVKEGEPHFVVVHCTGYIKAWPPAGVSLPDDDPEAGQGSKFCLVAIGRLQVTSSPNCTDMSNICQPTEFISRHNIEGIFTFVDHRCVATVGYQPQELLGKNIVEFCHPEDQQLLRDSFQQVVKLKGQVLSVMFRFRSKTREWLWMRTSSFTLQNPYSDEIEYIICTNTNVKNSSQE

Binder	Kd [1] [nM]	Kd [2] [nM]	Kd [3] [nM]
B1	8.6		
B2		~10.5	
B3		1.4	
B4		11.7	
B5		29.1	~0.8
